Reference: publication PMC5882805

Columns and labels:
[1] = target: Islet amyloid polypeptide (IAPP), human (human) (UniProt P10997); test: FRET or BRET; diluted-FRET inside live INS-1 cells; 10 uM IAPP in the medium, equimolar ADM-116 added 3 h later (rescued condition); donor:acceptor:unlabelled 1:1:100; 24 h and 48 h
[2] = target: Islet amyloid polypeptide (IAPP), human (human) (UniProt P10997); test: FRET or BRET; diluted-FRET inside live INS-1 cells; 10 uM IAPP, no ADM-116 (toxic condition); donor:acceptor:unlabelled 1:1:500; 24 h
[3] = target: Islet amyloid polypeptide (IAPP), human (human) (UniProt P10997); test: FRET or BRET; diluted-FRET inside live INS-1 cells; 10 uM IAPP, no ADM-116 (toxic condition); donor:acceptor:unlabelled 1:1:500; 48 h
[4] = target: Islet amyloid polypeptide (IAPP), human (human) (UniProt P10997); test: FRET or BRET; diluted-FRET by confocal imaging on GPMVs from INS-1 cells; 50 uM IAPP, 5 uM phospholipid, no ADM-116 (10:1:0); donor:acceptor:unlabelled 1:1:500; first 34 min (small sieve size leakage)

With “Islet amyloid polypeptide (IAPP), human (from UniProt P10997 34-70)” the FRETeff (single peak, rescued with ADM-116) [1] was 0.6, the FRETeff (peak at 24 h) [2] was 0.36 and the FRETeff (peak at 48 h) [3] was 0.62. The FRETeff (peak 1 of 4, first 34 min) [4] was 0.21, the FRETeff (peak 2 of 4, first 34 min) [4] was 0.36 and the FRETeff (peak 3 of 4, first 34 min) [4] was 0.41. It also gave an FRETeff (peak 4 of 4, first 34 min) [4] of 0.58.
